B1: full-length rat endophilin A1 (single-cysteine form) (natural protein, UniProt O35179 1-352, looked up)
chain: MSVAGLKKQFHKATQKVSEKVGGAEGTKLDDDFKEMERKVDVTSRAVMEIMTKTIEYLQPNPASRAKLSMINTMSKIRGQEKGPGYPQAEALLAEAMLKFGRELGDDSNFGPALGEVGEAMRELSEVKDSLDMEVKQNFIDPLQNLHDKDLREIQHHLKKLEGRRLDFDYKKKRQGKIPDEELRQALEKFDESKEIAESSMFNLLEMDIEQVSQLSALVQAQLEYHKQAVQILQQVTVRLCERIRQASSQPRREYQPKPRMSLEFATGDGTQPNGGLSHTGTPKPAGVQMDQPSSRALYDFEPENEGELGFKEGDIITLTNQIDENWYEGMLHGQSGFFPINYVEILVALPH
modifications: Alexa 594 or Alexa 488 C5-maleimide on the small labelled fraction (about 4-10 mol%) mixed with unlabelled protein
notes: endophilin A1, rat, full length, mutated to a single-cysteine form for labeling; also called A1 isoform of endophilin, from rat; full-length endophilin

Experiments:
[1] = molecular target: full-length rat endophilin A1 (single-cysteine form) (rat) (UniProt O35179); assay: client partitioning into condensate droplets (confocal microscopy, apparent partition coefficient); endophilin (25 µM) droplets with 10% PEG; Alexa-labeled client at 250 nM to 1 µM mixed in before PEG; 20 mM HEPES, 150 mM NaCl, 1 mM TCEP, pH 7.4, room temperature; apparent
[2] = molecular target: full-length rat endophilin A1 (single-cysteine form) (rat) (UniProt O35179)
[3] = molecular target: endophilin N-BAR-only mutant (rat); assay: fluorescence intensity ratio of droplets vs. bulk solution (confocal microscopy); 1 µM Alexa 594-labeled variant with 25 µM of the same unlabeled variant, 10% PEG
[4] = molecular target: B1; assay: cell-based or functional assay
[5] = molecular target: B1; assay: client partitioning into condensate droplets (confocal microscopy, apparent partition coefficient); endophilin (25 µM) droplets with 10% PEG; Alexa-labeled client at 250 nM to 1 µM mixed in before PEG; 20 mM HEPES, 150 mM NaCl, 1 mM TCEP, pH 7.4, room temperature; apparent; details: both partners purified
[6] = molecular target: the molecule itself; assay: fluorescence intensity ratio of droplets vs. bulk solution (confocal microscopy); 1 µM Alexa 594-labeled variant with 25 µM of the same unlabeled variant, 10% PEG

Row | threshold endophilin concentration for LLPS (10% PEG) in the presence of 10 µM client (10 µM without client) [4] [µM] | apparent partition coefficient (Kapp) [5] | Molecule | other results
1 |  |  | BIN1 isoform 9 (natural protein) | apparent partition coefficient (Kapp) [1]: 267
2 |  |  | PRM7-His: heptameric repeat of a lamellipodin proline-rich motif (aa 970–981) joined by (Gly-Gly-Ser)4 linkers (from UniProt Q70E73 970-981; Q70E73 970-981; Q70E73 970-981; Q70E73 970-981; Q70E73 970-981; Q70E73 970-981; Q70E73 970-981) (designed binder) | apparent partition coefficient (Kapp) [1]: 26; threshold endophilin concentration for LLPS (10% PEG) in the presence of 10 µM client (10 µM without client) [2]: < 5 µM
3 |  |  | endophilin N-BAR-only mutant (domain or fragment) | fluorescence intensity ratio inside vs. outside droplets [3]: 1800
4 | ≤ 5 | 515 | lamellipodin C-terminal domain fragment LPD^850–1250 with C-terminal His6 tag (domain or fragment, UniProt Q70E73 850-1250, looked up, Alexa 647 succinimidyl ester on the labelled fraction, Synthesized and cloned into pGEX6p1 by Biomatik; also called LPD C-terminal domain; source: E. coli BL21-CodonPlus(DE3)-RIL, purified (Ni-NTA agarose, cation exchange); not shown: His6, C-terminal, kept) PPPSPLSPVPSVVKQIASQFPPPPTPPAMESQPLKPVPANVAPQSPPAVKAKPKWQPSSIPVPSPDFPPPPPESSLVFPPPPPSPVPAPPPPPPPTASPTPDKSGSPGKKTSKTSSPGGKKPPPTPQRNSSIKSSSGAEHPEPKRPSVDSLVSKFTPPAESGSPSKETLPPPAAPPKPGKLNLSGVNLPGVLQQGCVSAKAPVLSGRGKDSVVEFPSPPSDSDFPPPPPETELPLPPIEIPAVFSGNTSPKVAVVNPQPQQWSKMSVKKAPPPTRPKRNDSTRLTQAEISEQPTMATVVPQVPTSPKSSLSVQPGFLADLNRTLQRKSITRHGSLSSRMSRAEPTATMDDMALPPPPPELLSDQQKAGYGGSHISGYATLRRGPPPAPPKRDQNTKLSRDW | 
5 | ≤ 5 | 138 | third intracellular loop (TIL) of the human β1-adrenergic receptor (aa 246–325) (domain or fragment, UniProt P08588 246-325, looked up, Alexa 488 (5-SDP ester) at the N-terminal on the labelled fraction, β1-adrenergic receptor, human, third intracellular loop, 80 amino acids, aa 246–325; Cloned in pGEX6p1; GST cleaved by PreScission protease; also called TIL-Alexa 488; source: E. coli BL21-CodonPlus(DE3)-RIL, purified (GST Trap, cation exchange)) RVFREAQKQVKKIDSCERRFLGGPARPPSPSPSPVPAPAPPPGPPRPAAAAATAPLANGRAGKRRPSRLVALREQKALKT | 
6 |  |  | B1 | fluorescence intensity ratio inside vs. outside droplets [6]: 480
7 | 30 | 352 | full-length human amphiphysin 1 (natural protein, UniProt P49418 1-695, looked up, Alexa 488 C5-maleimide, amphiphysin 1, human, full length; Plasmid from Pietro De Camilli's lab; also called Amph1; Amph1-Alexa 488) MADIKTGIFAKNVQKRLNRAQEKVLQKLGKADETKDEQFEEYVQNFKRQEAEGTRLQRELRGYLAAIKGMQEASMKLTESLHEVYEPDWYGREDVKMVGEKCDVLWEDFHQKLVDGSLLTLDTYLGQFPDIKNRIAKRSRKLVDYDSARHHLEALQSSKRKDESRISKAEEEFQKAQKVFEEFNVDLQEELPSLWSRRVGFYVNTFKNVSSLEAKFHKEIAVLCHKLYEVMTKLGDQHADKAFTIQGAPSDSGPLRIAKTPSPPEEPSPLPSPTASPNHTLAPASPAPARPRSPSQTRKGPPVPPLPKVTPTKELQQENIISFFEDNFVPEISVTTPSQNEVPEVKKEETLLDLDFDPFKPEVTPAGSAGVTHSPMSQTLPWDLWTTSTDLVQPASGGSFNGFTQPQDTSLFTMQTDQSMICNLAESEQAPPTEPKAEEPLAAVTPAVGLDLGMDTRAEEPVEEAVIIPGADADAAVGTLVSAAEGAPGEEAEAEKATVPAGEGVSLEEAKIGTETTEGAESAQPEAEELEATVPQEKVIPSVVIEPASNHEEEGENEITIGAEPKETTEDAAPPGPTSETPELATEQKPIQDPQPTPSAPAMGAADQLASAREASQELPPGFLYKVETLHDFEAANSDELTLQRGDVVLVVPSDSEADQDAGWLVGVKESDWLQYRDLATYKGLFPENFTRRLD | 
8 |  |  | endophilin ΔH0 mutant (domain or fragment, Alexa 594 C5-maleimide on the labelled fraction) GGAEGTKLDDDFKEMERKVDVTSRAVMEIMTKTIEYLQPNPASRAKLSMINTMSKIRGQEKGPGYPQAEALLAEAMLKFGRELGDDCNFGPALGEVGEAMRELSEVKDSLDMEVKQNFIDPLQNLHDKDLREIQHHLKKLEGRRLDFDYKKKRQGKIPDEELRQALEKFDESKEIAESSMFNLLEMDIEQVSQLSALVQAQLEYHKQAVQILQQVTVRLEERIRQASSQPRREYQPKPRMSLEFATGDGTQPNGGLSHTGTPKPAGVQMDQPCCRALYDFEPENEGELGFKEGDIITLTNQIDENWYEGMLHGQSGFFPINYVEILVALPH | fluorescence intensity ratio inside vs. outside droplets [6]: 380
9 | 15 | 1130 | FBP17 (natural protein, UniProt Q96RU3 1-617, looked up, Alexa 488 C5-maleimide, Obtained from Harvey McMahon's lab; also called F-BAR family protein FBP17; FBP17 (Alexa 488); source: E. coli BL21-CodonPlus(DE3)-RIL, purified (GSTrap, size exclusion)) MSWGTELWDQFDNLEKHTQWGIDILEKYIKFVKERTEIELSYAKQLRNLSKKYQPKKNSKEEEEYKYTSCKAFISNLNEMNDYAGQHEVISENMASQIIVDLARYVQELKQERKSNFHDGRKAQQHIETCWKQLESSKRRFERDCKEADRAQQYFEKMDADINVTKADVEKARQQAQIRHQMAEDSKADYSSILQKFNHEQHEYYHTHIPNIFQKIQEMEERRIVRMGESMKTYAEVDRQVIPIIGKCLDGIVKAAESIDQKNDSQLVIEAYKSGFEPPGDIEFEDYTQPMKRTVSDNSLSNSRGEGKPDLKFGGKSKGKLWPFIKKNKLMSLLTSPHQPPPPPPASASPSAVPNGPQSPKQQKEPLSHRFNEFMTSKPKIHCFRSLKRGLSLKLGATPEDFSNLPPEQRRKKLQQKVDELNKEIQKEMDQRDAITKMKDVYLKNPQMGDPASLDHKLAEVSQNIEKLRVETQKFEAWLAEVEGRLPARSEQARRQSGLYDSQNPPTVNNCAQDRESPDGSYTEEQSQESEMKVLATDFDDEFDDEEPLPAIGTCKALYTFEGQNEGTISVVEGETLYVIEEDKGDGWTRIRRNEDEEGYVPTSYVEVCLDKNAKDS | 

— publication PMC9418313, “Multivalent interactions between molecular components involved in fast endophilin mediated endocytosis drive protein phase separation” (Nature Communications, 2022)
